In publication PMC5984625, “Dynamic structural states of ClpB involved in its disaggregation function” (Nature Communications, 2018):

Key:
[1] = target: the molecule itself; test: AUC; sedimentation velocity, 20 °C, 42,000 rpm, 50 mM MOPS pH 7.5, 50 mM KCl, 5 mM MgCl2, 0.5 and 2.0 mg/mL protein, with 2 mM ATPγS (preincubated 55 °C 1 min)
[2] = target: the molecule itself; test: AUC; sedimentation velocity, 20 °C, 42,000 rpm, 50 mM MOPS pH 7.5, 50 mM KCl, 5 mM MgCl2, 0.5 and 2.0 mg/mL protein, with 20 mM ADP (preincubated 55 °C 1 min)
[3] = target: the molecule itself; test: AUC; sedimentation velocity, 20 °C, 42,000 rpm, 50 mM MOPS pH 7.5, 50 mM KCl, 5 mM MgCl2, 0.5 and 2.0 mg/mL protein, with 20 mM ATP (preincubated 55 °C 1 min)
[4] = target: the molecule itself; test: native MS; incubated at 55 °C with 2 mM ATP or ATPγS for 1 min, exchanged into 150 mM ammonium acetate pH 7.5 with 100 µM ATP or ATPγS at 4 °C; nanoflow electrospray

B1: Full-length T. thermophilus ClpB (TClpB) (natural protein)
chain: not shown
notes: ClpB of Thermus thermophilus, full length, expressed from plasmid pMCB1; The protomer; it assembles into oligomers of varying size depending on the nucleotide; also called full-length TClpB; source: E. coli BL21(DE3) or KRX carrying pMCB1, purified
- stoichiometry N [1]: 6
- stoichiometry N [2]: < 6
- stoichiometry N [3]: 3
- stoichiometry N [4]: 2
